# PMC2173703 (The Journal of Cell Biology, 2003)
# Read-outs that look alike come from different tables or passages of the source. Where no end group is shown, it is not given here. [ ]: non-standard residue; d: D form. pY = N[C@@H](Cc1ccc(OP(=O)(O)O)cc1)C(=O)O; pT = C[C@@H](OP(=O)(O)O)[C@H](N)C(=O)O
# T1: fluorescein-labeled Y644-phosphorylated PIPKIγ661 peptide
# T1 peptide: fluorescein-CDERSWV[pY]SPLHYSAR
# T2: fluorescein-labeled Y649-phosphorylated PIPKIγ661 peptide
# T2 peptide: fluorescein-CDERSWVYSPLH[pY]SAR
# B1: GST-talin head, wild type (human talin1 1–435) (domain or fragment)
# chain: MVALSLKISIGNVVKTMQFEPSTMVYDACRIIRERIPEAPAGPPSDFGLFLSDDDPKKGIWLEAGKALDYYMLRNGDTMEYRKKQRPLKIRMLDGTVKTIMVDDSKTVTDMLMTICARIGITNHDEYSLVRELMEEKKEEITGTLRKDKTLLRDEKKMEKLKQKLHTDDELNWLDHGRTLREQGVEEHETLLLRRKFFYSDQNVDSRDPVQLNLLYVQARDDILNGSHPVSFDKACEFAGFQCQIQFGPHNEQKHKAGFLDLKDFLPKEYVKQKGERKIFQAHKNCGQMSEIEAKVRYVKLARSLKTYGVSFFLVKEKMKGKNKLVPRLLGITKECVMRVDEKTKEVIQEWNLTNIKRWAASPKSFTLDFGDYQDGYYSVQTTEGEQIAQLIAGYIDIILKKKKSKDHFGLEGDEESTMLEDSVSPKKSTVLQQQ
# Experiments:
# [1] = test system: integrin–talin interaction; conditions: ref Martel et al., 2001; cited from earlier work
# [2] = test system: tyrosine phosphorylation of PIPKIγ661 (Src family kinases); format: cell-based; conditions: HEK293T cells, 1 μM for 30 min at 37°C; Fig. 2 A
# [3] = biological target: B1; assay: pull-down
# [4] = biological target: T1, fluorescein-labeled Y644-phosphorylated …; assay: fluorescence polarisation
# [5] = biological target: T2, fluorescein-labeled Y649-phosphorylated …; assay: fluorescence polarisation
# [6] = biological target: B1; assay: pull-down; remark: listed apart in the source
molecule,measurement,setting,value
"Phosphatidylinositol 4,5-bisphosphate [PI4,5P2]",increase of the integrin–talin binding affinity,[1],~10 fold
CC(C)(C)n1nc(-c2ccc(Cl)cc2)c2c(N)ncnc21 [PP2],inhibition of basal and FAK-induced tyrosine phosphorylation of PIPKIγ661,[2],inhibited
CMNAKWD[pT]GENPIYKSA [β1-integrin peptide β1InpT],binding result,[3],binds
CMNAKWDTGENPIYKSA [β1-integrin peptide β1InPN (nonphosphorylated)],binding result,[3],binds
B1,fold increase in binding affinity against the nonphosphorylated peptide,[4],~15 fold
same,fold increase in binding affinity against the nonphosphorylated peptide,[5],~15 fold
CDERSWVYSPLHYSAR [PIPKIγ661 peptide PN (nonphosphorylated)],binding result,[6],binds
